Measurements published in patent US20250213686A1 (published 2025).

T1: Preproinsulin (PPI) peptide on HLA-DRA*01:01 / HLA-DRB1*04:01 (human)
T1 peptide: SLQPLALEGSLQKRG

T2: DUF4435 domain-containing protein [Bacillus toyonensis] (IGRP305_324_path5) peptide on HLA-DRA*01:01 / … (human)
T2 peptide: YDEVLQIPTHQENTQ

T3: UDP-N-acetylglucosamine--N-acetylmuramyl-(pentapeptide) pyrophosphoryl-undecaprenol N-acetylglucosamine … (human)
T3 peptide: AASFLHIPYFTHECD

T4: TPA: UDP-N-acetylglucosamine--N-acetylmuramyl-(pentapeptide) pyrophosphoryl-undecaprenol N-acetylglucosamine … (human)
T4 peptide: AARFLHIPYYTHECD

T5: undecaprenyldiphospho-muramoylpentapeptide beta-N-acetylglucosaminyltransferase [Treponema sp.] … (human)
T5 peptide: AAKFLHIPVFTHECD

T6: exodeoxyribonuclease V subunit beta [Chlamydia caviae] (IGRP305_324_path12) peptide on HLA-DRA*01:01 / … (human)
T6 peptide: CSPFLQIPSYEPIEY

T7: hypothetical protein V495_01361 [Pseudogymnoascus sp. VKM F-4514 (FW-929)] (IGRP305_324_path15) peptide on … (human)
T7 peptide: SAMFLDIPTHPEEHS

T8: hypothetical protein GX51_07420 [Blastomyces parvus] (IGRP305_324_path16) peptide on HLA-DRA*01:01 / … (human)
T8 peptide: KYEFLPIPTYEEATS

T9: hypothetical protein T551_03071 [Pneumocystis jirovecii RU7] (IGRP305_324_path17) peptide on HLA-DRA*01:01 / … (human)
T9 peptide: FTDFLNIPSYEELND

T10: hypothetical protein KMI_05g09430 [Encephalitozoon hellem] (IGRP305_324_path18) peptide on HLA-DRA*01:01 / … (human)
T10 peptide: LSEFLKIPNHEITLL

T11: hypothetical protein ECU05_1220 [Encephalitozoon cuniculi GB-M1] (IGRP305_324_path19) peptide on … (human)
T11 peptide: QQKFLKNIDTHEEAE

T12: WD domain, G-beta repeat-containing protein [Toxoplasma gondii ARI] (IGRP305_324_path20) peptide on … (human)
T12 peptide: ESLFLQLSTHTEASA

B1: T1D4 TCR (TCR, V domains shown)
Valpha: KDQVFQPSTVASSEGAVVEIFCNHSVSNAYNFFWYLHFPGCAPRLLVKGSKPSQQGRYNMTYERFSSSLLILQVREADAAVYYCAVEDLNQAGTALIFGKGTTLSVSS
Vbeta: KAGVTQTPRYLIKTRGQQVTLSCSPISGHRSVSWYQQTPGQGLQFLFEYFSETQRNKGNFPGRFSGRQFSNSRSEMNVSTLELGDSALYLCASSLALGQGNQQFFGPGTRLTVL
B2: T1D2 TCR (TCR, V domains shown)
Valpha: DQQVKQNSPSLSVQEGRISILNCDYTNSMFDYFLWYKKYPAEGPTFLISISSIKDKNEDGRFTVFLNKSAKHLSLHIVPSQPGDSAVYFCAATRTSGTYKYIFGTGTRLKVLA
Vbeta: NAGVTQTPKFRILKIGQSMTLQCTQDMNHNYMYWYRQDPGMGLKLIYYSVGAGITDKGEVPNGYNVSRSTTEDFPLRLELAAPSQTSVYFCASSPWGAGGTDTQYFGPGTRLTVL

What was measured:
IGRP (islet-specific …) [1] = target: T13, IGRP (islet-specific glucose-6-phosphatase-related protein) peptide on HLA-DRA*01:01 / HLA-DRB1*04:01 (human); assay: proliferation
[2] = target: T1, Preproinsulin (PPI) peptide on …; assay: proliferation
[3] = target: T2, DUF4435 domain-containing protein …; assay: activation reporter or marker
[4] = target: T3, UDP-N-acetylglucosamine--N-acetylmuramyl …; assay: activation reporter or marker
[5] = target: T4, TPA: …; assay: activation reporter or marker
[6] = target: T5, undecaprenyldiphospho-muramoylpentapepti …; assay: activation reporter or marker
[7] = target: T6, exodeoxyribonuclease V subunit beta …; assay: activation reporter or marker
[8] = target: T7, hypothetical protein V495_01361 …; assay: activation reporter or marker
[9] = target: T8, hypothetical protein GX51_07420 …; assay: activation reporter or marker
[10] = target: T9, hypothetical protein T551_03071 …; assay: activation reporter or marker
[11] = target: T10, hypothetical protein KMI_05g09430 …; assay: activation reporter or marker
[12] = target: T11, hypothetical protein ECU05_1220 …; assay: activation reporter or marker
[13] = target: T12, WD domain, G-beta repeat-containing …; assay: activation reporter or marker
IGRP (islet-specific …) [14] = target: T13, IGRP (islet-specific …); assay: lower end of the range; % CD137-expressing cells; LV-transduced CD4+ T cells 3:1 with peptide-pulsed HLA-DR4 K562 cells, 20 h; full-length, on cells
IGRP (islet-specific …) [15] = target: T13, IGRP (islet-specific …); assay: upper end of the range; % CD137-expressing cells; LV-transduced CD4+ T cells 3:1 with peptide-pulsed HLA-DR4 K562 cells, 20 h; full-length, on cells
IGRP (islet-specific …) [16] = target: T13, IGRP (islet-specific …); assay: lower end of the range; CD154 surface expression intensity; LV-transduced CD4+ T cells 3:1 with peptide-pulsed HLA-DR4 K562 cells, 20 h; full-length, on cells
IGRP (islet-specific …) [17] = target: T13, IGRP (islet-specific …); assay: upper end of the range; CD154 surface expression intensity; LV-transduced CD4+ T cells 3:1 with peptide-pulsed HLA-DR4 K562 cells, 20 h; full-length, on cells

Row | Binder | binding result (IGRP (islet-specific …) [1]) | binding result [2] | binding result [3] | binding result [4] | binding result [5] | binding result [6] | binding result [7] | binding result [8] | binding result [9] | binding result [10] | binding result [11] | binding result [12] | binding result [13] | EC50 of peptide (IGRP (islet-specific …) [14]) | EC50 of peptide (IGRP (islet-specific …) [15]) | EC50 of peptide (IGRP (islet-specific …) [16]) | EC50 of peptide (IGRP (islet-specific …) [17])
1 | B1 | no recognition | no recognition |  |  |  |  |  |  |  |  |  |  |  |  |  |  | 
2 | B2 |  |  | no recognition | no recognition | no recognition | no recognition | no recognition | no recognition | no recognition | no recognition | no recognition | no recognition | no recognition | ≥ 0.03 µg/mL | ≤ 0.1 µg/mL | ≥ 0.1 µg/mL | ≤ 0.3 µg/mL
